Measurements as given in doi:10.1101/2024.08.19.608523 (bioRxiv, 2024).

B1: GAS2-GAR domain (residues 198-314) (domain or fragment)
chain: STGNLLDDAVKRISEDPPCKCPTKFCVERLSQGRYRVGEKILFIRMLHNKHVMVRVGGGWETFAGYLLKHDPCRMLQISRVDGKTSPVQSKSPTLKDMNPDNYLVVSATYKAKKEIK

Key:
[1] = target: microtubules (polymerized porcine brain tubulin) (porcine) (UniProt Q2XVP4); assay: co-sedimentation
SEC = target: the molecule itself; assay: SEC

Row | Molecule | Kd [1] [µM] | stoichiometry N (SEC)
1 | GAS2-GAR G255A (from UniProt P11862 198-314) (domain or fragment) | 2.69 | –
2 | GAS2-GAR G255E (from UniProt P11862 198-314) (domain or fragment) | 9.6 | –
3 | GAS2-GAR K266E (from UniProt P11862 198-314) (domain or fragment) | 10.6 | –
4 | GAS2-GAR R242E (from UniProt P11862 198-314) (domain or fragment) | 5 | –
5 | GAS2-GAR R252E (from UniProt P11862 198-314) (domain or fragment) | 47 | –
6 | GAS2-GAR W257E (from UniProt P11862 198-314) (domain or fragment) | 27 | –
7 | B1 | 0.69 | 2
